Legend:
[1] = target: T1, Human FXI zymogen (human, UniProt P03951 19-625); test: SET KD compared with the BIACORE KD for the FXI catalytic domain
T1 construct: also called huFXI; zymogen FXI

[2] = target: T2, Human FXI activated (human, UniProt P03951 19-387; P03951 388-625); test: as above
T2 construct: The activity assay used Kordia HFXIa 1111a; also called huFXIa
T2 sequence (P03951 19-387 C226S, chain 1 of 2): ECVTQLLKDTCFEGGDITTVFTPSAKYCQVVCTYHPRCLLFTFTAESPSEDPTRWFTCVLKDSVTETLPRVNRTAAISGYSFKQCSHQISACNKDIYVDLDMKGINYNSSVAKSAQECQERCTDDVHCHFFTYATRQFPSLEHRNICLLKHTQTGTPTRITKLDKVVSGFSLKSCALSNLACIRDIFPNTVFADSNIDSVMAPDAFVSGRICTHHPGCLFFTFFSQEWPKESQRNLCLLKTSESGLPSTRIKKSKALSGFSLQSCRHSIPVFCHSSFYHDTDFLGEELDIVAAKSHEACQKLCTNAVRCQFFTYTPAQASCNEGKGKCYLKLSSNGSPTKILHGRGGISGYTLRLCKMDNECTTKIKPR
T2 sequence (P03951 388-625, chain 2 of 2): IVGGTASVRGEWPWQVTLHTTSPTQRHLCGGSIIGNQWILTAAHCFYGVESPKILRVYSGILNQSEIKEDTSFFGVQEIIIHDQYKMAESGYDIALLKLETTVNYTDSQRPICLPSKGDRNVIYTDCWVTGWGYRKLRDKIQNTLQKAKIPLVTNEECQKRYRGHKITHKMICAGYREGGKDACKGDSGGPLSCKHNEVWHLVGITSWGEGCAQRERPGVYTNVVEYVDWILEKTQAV

T1 sequence (P03951 19-625 C226S): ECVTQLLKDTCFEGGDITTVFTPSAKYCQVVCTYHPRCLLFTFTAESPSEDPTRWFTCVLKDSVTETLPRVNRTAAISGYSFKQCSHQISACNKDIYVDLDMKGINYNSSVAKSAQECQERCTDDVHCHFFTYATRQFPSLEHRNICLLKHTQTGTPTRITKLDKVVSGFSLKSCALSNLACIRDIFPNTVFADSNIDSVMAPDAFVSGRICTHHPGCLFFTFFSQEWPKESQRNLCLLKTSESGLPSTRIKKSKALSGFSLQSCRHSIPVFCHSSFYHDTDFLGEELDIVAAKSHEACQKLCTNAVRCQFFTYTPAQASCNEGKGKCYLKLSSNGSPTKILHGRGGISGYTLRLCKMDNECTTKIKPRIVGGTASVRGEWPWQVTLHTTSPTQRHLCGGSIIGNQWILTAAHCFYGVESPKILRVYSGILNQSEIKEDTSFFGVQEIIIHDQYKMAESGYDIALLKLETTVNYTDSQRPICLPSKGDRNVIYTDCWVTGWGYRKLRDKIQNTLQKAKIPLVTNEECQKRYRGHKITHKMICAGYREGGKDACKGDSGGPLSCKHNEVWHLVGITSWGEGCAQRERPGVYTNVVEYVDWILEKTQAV

fold higher affinity than to the catalytic domain [1]: 300 times | fold higher affinity than to the catalytic domain [2]: 66 times
B1: NOV1401-Fab (Fab, V domains shown)
VH: QVQLLESGGGLVQPGGSLRLSCAASGFTFSTAAMSWVRQAPGKGLEWVSGISGSGSSTYYADSVKGRFTISRDNSKNTLYLQMNSLRAEDTAVYYCARELSYLYSGYYFDYWGQGTLVTVSS
VL: QSVLTQPPSASGTPGQRVTISCSGSSSNIGSNDVSWYQQLPGTAPKLLIYKNYNRPSGVPDRFSGSKSGTSASLAISGLQSEDEADYYCSAWDQRQFDVVFGGGTKLTVLG
notes: also called Fab portion of NOV1401

Reference: US20180355056A1 (Novartis, published 2018)
